US20140045756A1

Legend:
[1] = target: TNFR1 immobilized on the SPR sensor chip (channel 3) (UniProt P19438); test: SPR (FastStep kinetic assay)
[2] = target: TNFR2 immobilized on the SPR sensor chip (channel 1) (UniProt P20333); test: SPR (FastStep kinetic assay); right panel is TNFR2; key printed as TNFR1; conditions: designed binder
[3] = target: TNFR2 immobilized on the SPR sensor chip (channel 1) (UniProt P20333); test: SPR (FastStep kinetic assay); conditions: ligand

Chain of TNFR1 immobilized on the SPR sensor chip (channel 3) (P19438 30-211): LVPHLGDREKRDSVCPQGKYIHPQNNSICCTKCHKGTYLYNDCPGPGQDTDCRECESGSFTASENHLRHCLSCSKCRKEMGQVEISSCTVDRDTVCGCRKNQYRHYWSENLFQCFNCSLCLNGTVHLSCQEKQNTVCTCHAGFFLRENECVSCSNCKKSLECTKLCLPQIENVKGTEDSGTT
Chain of Recombinant human PGRN (rhPGRN) (P28799 18-593): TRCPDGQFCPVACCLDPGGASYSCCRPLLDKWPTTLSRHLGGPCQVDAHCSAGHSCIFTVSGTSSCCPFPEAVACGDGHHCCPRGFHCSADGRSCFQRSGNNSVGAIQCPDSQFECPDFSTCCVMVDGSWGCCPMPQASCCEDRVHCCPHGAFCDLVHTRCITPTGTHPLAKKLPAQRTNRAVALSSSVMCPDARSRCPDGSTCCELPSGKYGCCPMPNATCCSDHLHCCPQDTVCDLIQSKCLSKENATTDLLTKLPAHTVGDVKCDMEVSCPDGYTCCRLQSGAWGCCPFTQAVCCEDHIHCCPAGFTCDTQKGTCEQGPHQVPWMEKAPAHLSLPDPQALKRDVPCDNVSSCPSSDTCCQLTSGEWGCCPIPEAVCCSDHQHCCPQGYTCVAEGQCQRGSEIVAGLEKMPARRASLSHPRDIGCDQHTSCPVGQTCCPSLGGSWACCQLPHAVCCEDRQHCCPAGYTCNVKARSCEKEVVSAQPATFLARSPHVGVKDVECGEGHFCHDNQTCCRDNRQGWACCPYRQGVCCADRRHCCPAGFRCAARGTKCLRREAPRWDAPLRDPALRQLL

| Substance | Kd ([1]; designed binder) [nM] | Kd [2] [nM] | Kd ([1]; ligand) [nM] | Kd [3] [nM] |
| --- | --- | --- | --- | --- |
| Atsttrin-α1 (Antagonist of TNF/TNFR Signaling via Targeting to TNF Receptors-α1), recombinant | 142 | 90.2 |  |  |
| Recombinant human PGRN (rhPGRN) (from UniProt P28799 18-593) |  |  | 1.77 | 1.52 |
